The chains are these.
B1: MBP–Hrp1p NLS [S. cerevisiae] / Kap104p [yeast (S. cerevisiae)] (parent complex)
chain 1: RDRNDRDRDYNHRSGGNHRRNGRGGRGGYNRRNNGYHPYNR
chain 2: MASTWKPAEDYVLQLATLLQNCMSPNPEIRNNAMEAMENFQLQPEFLNYLCYILIEGESDDVLKQHYSLQDLQNNRATAGMLLKNSMLGGNNLIKSNSHDLGYVKSNIIHGLYNSNNNLVSNVTGIVITTLFSTYYRQHRDDPTGLQMLYQLLELTSNGNEPSIKALSKIMEDSAQFFQLEWSGNTKPMEALLDSFFRFISNPNFSPVIRSESVKCINTVIPLQTQSFIVRLDKFLEIIFQLAQNDENDLVRAQICISFSFLLEFRPDKLVSHLDGIVQFMLHLITTVNEEKVAIEACEFLHAFATSPNIPEHILQPYVKDIVPILLSKMVYNEESIVLLEASNDDDAFLEDKDEDIKPIAPRIVKKKEAGNGEDADDNEDDDDDDDDEDGDVDTQWNLRKCSAATLDVMTNILPHQVMDIAFPFLREHLGSDRWFIREATILALGAMAEGGMKYFNDGLPALIPFLVEQLNDKWAPVRKMTCWTLSRFSPWILQDHTEFLIPVLEPIINTLMDKKKDVQEAAISSVAVFIENADSELVETLFYSQLLTSFDKCLKYYKKKNLIILYDAIGRFAEKCALDETAMQIILPPLIEKWALLSDSDKELWPLLECLSCVASSLGERFMPMAPEVYNRAFRILCHCVELEAKSHQDPTIVVPEKDFIITSLDLIDGLVQGLGAHSQDLLFPQGTKDLTILKIMLECLQDPVHEVRQSCFALLGDIVYFFNSELVIGNLEDFLKLIGTEIMHNDDSDGTPAVINAIWALGLISERIDLNTYIIDMSRIILDLFTTNTQIVDSSVMENLSVTIGKMGLTHPEVFSSGAFANDSNWNKWCLSVNALDDVEEKSSAYMGFLKIINLTSTEVTMSNDTIHKIVTGLSSNVEANVFAQEIYTFLMNHSAQISAINFTPDEISFLQQFTS
B2: MBP–Nab2p NLS [S. cerevisiae] / Kap104p [yeast (S. cerevisiae)] (parent complex)
chain 1: DNSQRFTQRGGGAVGKNRRGGRGGNRGGRNNNSTRFNPLAKALGMAGESNM
chain 2: B1 chain 2

In the first experiment the parent is B1. In words: ITC; parent: -10.1. In general terms: ITC needs no label: the signal is the heat of the interaction.
For the variant chain 1 RDRNDRDRDYNHRSGGNHRRNGRGGRGGYNRANNGYHPYNR, the dG was -10.5 kcal/mol.
Take chain 1 RDRNDRDRDYNHRSGGNHRRNGRGGRGGYNARNNGYHPYNR: the dG is -10 kcal/mol.
With chain 1 RDRNDRDRDYNHRSGGNHKKNGKGGKGGYNRRNNGYHPYNR, the dG is -10 kcal/mol.
With chain 1 RDRNDRDRDYNHRSGGNHARNGRGGRGGYNRRNNGAHPYNR, the dG is -9.7 kcal/mol.
For chain 1 RDRNDRDRDYNHRSGGNHRRNGRGGRGGYNRRNNGLHPYNR, the dG is -10 kcal/mol.

The variants in a further experiment derive from B2. In words: ITC; parent: 37 nM.
Regarding chain 1 DNSQRFTQRGGGAVGKNRRGGRGGNRGGRNNNSTRLNPLAKALGMAGESNM, the Kd was found to be 66 nM.
Same read-out and setting: the figure for chain 1 DNSQRFTQRGGGAVGKNRRGGRGGNRGGRNNNSTRANPLAKALGMAGESNM is 296 nM; for chain 1 DNSQRFTQRGGGAVGKNKKGGKGGNKGGKNNNSTRFNPLAKALGMAGESNM it is 21 nM.
For the variant chain 1 DNSQRFTQRGGGAVGKNRRGGRGGNRGGRNNNSTHFNPLAKALGMAGESNM, the Kd was found to be 63 nM.

As a reminder, the Kd is a measure of binding affinity in units of concentration.

For the origin of these results see paper PMC2408616, “Modular Organization and Combinatorial Energetics of Proline–Tyrosine Nuclear Localization Signals” (PLoS Biology, 2008).
